Measurements as given in patent US20040018971A1 (published 2004).
Where no end group is shown, it is not given here. [ ]: non-standard residue; d: D form. Abu = CC[C@H](N)C(=O)O

B1: Her2/neu.65 (9-mer) (peptide)
peptide: LPTNASLSF
notes: native HER2/neu peptide from position 65
B2: Her2/neu.528.B1B4 (peptide)
peptide: [Abu]VN[Abu]SQFLR
notes: synthetic analog peptide; also called BVNBSQFLR
B3: Her2/neu.528.B1B4K9 (peptide)
peptide: BVNBSQFLK
modifications: B at positions 1 and 4 = alpha-amino butyric acid (in place of cysteine)
notes: synthetic analog peptide; also called BVNBSQFLK
B4: Her2/neu.600 (peptide)
peptide: CPSGVKPDLSY
notes: native HER2/neu peptide from position 600
B5: Her2/neu.218.B3B7 (peptide)
peptide: TV[Abu]AGG[Abu]AR
notes: synthetic analog peptide; also called TVBAGGBAR
B6: Her2/neu.995.F1I10 (peptide)
peptide: FPASPLDSTI
notes: 10-mer analog of the HER2/neu peptide starting at position 995
B7: Her2/neu.1149.F1I11 (peptide)
peptide: FPSPREGPLPI
notes: 11-mer analog of the HER2/neu peptide starting at position 1149

How the values were obtained:
[1] = molecular target: T1, HLA-A*0301 (human); test: competition with 125I-labelled probe peptide on purified HLA-A*0301, gel filtration; ratio to standard peptide 941.12
T1 construct: Purified HLA molecule, 5 to 500 nM in the assay; also called HLA-A3

[2] = molecular target: HLA-A*6801 (human); test: inhibition of 125I probe peptide binding to purified HLA
[3] = molecular target: HLA-A*0301 (human); test: as above
[4] = molecular target: HLA-A*3101 (human); test: as above
[5] = molecular target: HLA-A*1101 (human); test: as above
[6] = molecular target: HLA-A*3301 (human); test: as above
[7] = molecular target: T2, HLA-A*0201 (human); test: competition with 125I-labelled standard peptide for purified HLA-A*0201, gel filtration; ratio to the standard peptide
T2 construct: Purified HLA class I molecule; also called HLA-A2.1

[8] = molecular target: HLA-B*0702 (human); test: competition with 125I probe peptide, purified HLA
[9] = molecular target: HLA-B*5301 (human); test: competition with 125I probe peptide, purified HLA
[10] = molecular target: HLA-B*5101 (human); test: competition with 125I probe peptide, purified HLA
[11] = molecular target: HLA-B*3501 (human); test: competition with 125I probe peptide, purified HLA
[12] = molecular target: HLA-B*5301 (human); test: competition vs 125I-labelled probe peptide, purified HLA, gel filtration
[13] = molecular target: HLA-B*5101 (human); test: as above
[14] = molecular target: HLA-B*5401 (human); test: as above
[15] = molecular target: HLA-B*0702 (human); test: as above

| Binder | IC50 [3] [nM] | IC50 [4] [nM] | IC50 [6] [nM] | relative binding ratio (IC50 of standard peptide / IC50 of test peptide) [7] [ratio] | further results |
| --- | --- | --- | --- | --- | --- |
| VTGASPGGLR [HER2/neu peptide, position 129, 10 amino acids] | – | – | – | – | relative binding ratio (IC50 of standard peptide / IC50 of test peptide) [1]: 0.0002 relative binding ratio |
| IVWLGLRSLR (synthetic analog peptide) [Her2/neu.450.V2] | 234 | 11 | 193 | – | IC50 [2]: 7.3 nM; IC50 [5]: 1940 nM |
| ISWLGLRSLR (synthetic peptide) [Her2/neu.450] | 268 | 6.9 | 223 | – | IC50 [2]: 73 nM |
| GAFGTVYKGI (Synthetic peptide) [HER2/neu peptide, position 729, 10 amino acids] | – | – | – | 0.0001 | – |
| VSEFSRMAR [HER2/neu peptide, position 973, 9 amino acids] | – | – | – | – | relative binding ratio (IC50 of standard peptide / IC50 of test peptide) [1]: -0.0002 relative binding ratio |
| FPTNASLSFL (analog peptide) [Her2/neu.65.F1 (10-mer)] | – | – | – | – | IC50 [8]: 18 nM; IC50 [9]: 172 nM; IC50 [10]: 262 nM; IC50 [11]: 200 nM |
| HVVPWDQLFR (synthetic analog peptide) [Her2/neu.478.V2] | 7330 | 391 | 193 | – | IC50 [2]: 3.6 nM; IC50 [5]: 1330 nM |
| HTVPWDQLFR (synthetic peptide) [Her2/neu.478] | 3140 | 19 | 88 | – | IC50 [2]: 4 nM; IC50 [5]: 83 nM |
| DVWSYGVTV (Synthetic peptide) [HER2/neu peptide, position 904, 9 amino acids] | – | – | – | 0.0002 | – |
| WMALESILR [HER2/neu peptide, position 888, 9 amino acids] | – | – | – | – | relative binding ratio (IC50 of standard peptide / IC50 of test peptide) [1]: -0.0002 relative binding ratio |
| EILKGGVLI (Synthetic peptide) [HER2/neu peptide, position 147, 9 amino acids] | – | – | – | 0.0001 | – |
| YVLIAHNQVR [HER2/neu peptide, position 83, 10 amino acids] | – | – | – | – | relative binding ratio (IC50 of standard peptide / IC50 of test peptide) [1]: 0.0043 relative binding ratio |
| DLVDAEEYLV (Synthetic peptide) [HER2/neu peptide, position 1016, 10 amino acids] | – | – | – | 0.0002 | – |
| DVRLVHRDL (Synthetic peptide) [HER2/neu peptide, position 838, 9 amino acids] | – | – | – | 0.0002 | – |
| WIPDGENVK [HER2/neu peptide, position 739, 9 amino acids] | – | – | – | – | relative binding ratio (IC50 of standard peptide / IC50 of test peptide) [1]: 0.0002 relative binding ratio |
| CVNCSQFLR (synthetic peptide) [Her2/neu.528] | 7330 | 34 | 50 | – | IC50 [2]: 18 nM; IC50 [5]: 194 nM |
| TVLWKDIFHR (synthetic analog peptide) [Her2/neu.166.V2R10] | 8460 | 600 | 76 | – | IC50 [2]: 42 nM; IC50 [5]: 286 nM |
| B1 | – | – | – | – | IC50 [9]: 34 nM; IC50 [10]: 809 nM; IC50 [11]: 114 nM |
| B2 | 177 | 38 | 58 | – | IC50 [2]: 10 nM; IC50 [5]: 80 nM |
| B3 | 34 | 60 | 4260 | – | IC50 [2]: 15 nM; IC50 [5]: 22 nM |
| ELVSEFSRMA (Synthetic peptide) [HER2/neu peptide, position 971, 10 amino acids] | – | – | – | 0.0001 | – |
| B4 | – | – | – | – | IC50 [8]: 183 nM; IC50 [11]: 3600 nM |
| FPSGVKPDLSI (analog peptide) [Her2/neu.600.F1I11] | – | – | – | – | IC50 [8]: 196 nM; IC50 [11]: 3270 nM |
| B5 | 314 | 247 | 242 | – | IC50 [2]: 8 nM; IC50 [5]: 111 nM |
| YVMAGVGSPY [HER2/neu peptide, position 772, 10 amino acids] | – | – | – | – | relative binding ratio (IC50 of standard peptide / IC50 of test peptide) [1]: 0.01 relative binding ratio |

| Binder | IC50 [3] [nM] | IC50 [4] [nM] | IC50 [6] [nM] | relative binding ratio (IC50 of standard peptide / IC50 of test peptide) [7] [ratio] | further results |
| --- | --- | --- | --- | --- | --- |
| DLLNWCMQI (Synthetic peptide) [HER2/neu peptide, position 821, 9 amino acids] | – | – | – | 0.0002 | – |
| FVVIQNEDL (Synthetic peptide) [HER2/neu peptide, position 986, 9 amino acids] | – | – | – | 0.0002 | – |
| ELAALCRWGL (Synthetic peptide) [HER2/neu peptide, position 2, 10 amino acids] | – | – | – | 0.0001 | – |
| QLRSLTEILK (synthetic peptide) [Her2/neu.141] | 55 | 667 | 6170 | – | – |
| GAMPNQAQM (T0001 prints N at position 706) [HER2/neu peptide, position 704, 9 amino acids] | – | – | – | 0.0002 | – |
| WMIDSECRPR [HER2/neu peptide, position 959, 10 amino acids] | – | – | – | – | relative binding ratio (IC50 of standard peptide / IC50 of test peptide) [1]: -0.0002 relative binding ratio |
| ELGSGLALI (Synthetic peptide) [HER2/neu peptide, position 460, 9 amino acids] | – | – | – | 0.0004 | – |
| B6 | – | – | – | – | IC50 [12]: 30 nM; IC50 [13]: 20 nM; IC50 [14]: 14 nM; IC50 [15]: 20 nM |
| DVFAFGGAV (Synthetic peptide) [HER2/neu peptide, position 1183, 9 amino acids] | – | – | – | 0.0002 | – |
| DLSVFQNLQV [HER2/neu peptide, position 421, 10 amino acids] | – | – | – | 0.0003 | – |
| FVHTVPWDQL (Synthetic peptide) [HER2/neu peptide, position 476, 10 amino acids] | – | – | – | 0.0001 | – |
| GAAKGLQSL (Synthetic peptide) [HER2/neu peptide, position 1093, 9 amino acids] | – | – | – | 0.0001 | – |
| ILKGGVLIQR (synthetic peptide) [Her2/neu.148] | 275 | 25 | 121 | – | – |
| IVKGGVLIQK (synthetic analog peptide) [Her2/neu.148.V2K10] | 26 | 450 | 6590 | – | IC50 [2]: 27 nM; IC50 [5]: 102 nM |
| B7 | – | – | – | – | IC50 [12]: 5170 nM; IC50 [13]: 262 nM; IC50 [14]: 263 nM; IC50 [15]: 190 nM |
| IVWKDIFHK (synthetic analog peptide) [Her2/neu.167.V2] | 23 | 247 | 853 | – | IC50 [5]: 40 nM |
| ILWKDIFHK (synthetic peptide) [Her2/neu.167] | 39 | 82 | 967 | – | IC50 [2]: 1740 nM; IC50 [5]: 19 nM |
| IVWKDIFHR (synthetic analog peptide) [Her2/neu.167.V2R9] | 143 | 6 | 16 | – | IC50 [2]: 15 nM; IC50 [5]: 286 nM |
| YLEDVRLVHR [HER2/neu peptide, position 835, 10 amino acids] | – | – | – | – | relative binding ratio (IC50 of standard peptide / IC50 of test peptide) [1]: 0.0003 relative binding ratio |
| TILWKDIFHK (synthetic peptide) [Her2/neu.166] | 256 | 487 | 690 | – | IC50 [2]: 200 nM; IC50 [5]: 1.7 nM |
| DLVDAEEYL (Synthetic peptide) [HER2/neu peptide, position 1016, 9 amino acids] | – | – | – | 0.0002 | – |
| VTAEDGTQR [HER2/neu peptide, position 322, 9 amino acids] | – | – | – | – | relative binding ratio (IC50 of standard peptide / IC50 of test peptide) [1]: 0.0002 relative binding ratio |
| VVQGNLELTY [HER2/neu peptide, position 55, 10 amino acids] | – | – | – | – | relative binding ratio (IC50 of standard peptide / IC50 of test peptide) [1]: 0.0024 relative binding ratio |
| WMALESILRR [HER2/neu peptide, position 888, 10 amino acids] | – | – | – | – | relative binding ratio (IC50 of standard peptide / IC50 of test peptide) [1]: 0.0085 relative binding ratio |
